Experimental findings from article PMC10865995 are described below.

Test in all cases: EMSA
In general terms: Mobility shift assays separate free from complexed probe on a gel.

The target of series [1] is SRSF1 E60D (human, UniProt Q07955 1-248, E60D).
In series [2] the target is SRSF1 P89S (human, UniProt Q07955 1-248, P89S).
Series [3] deals with SRSF1 wild type (human, UniProt Q07955 1-248).
Chain of SRSF1 wild type (Q07955 whole entry): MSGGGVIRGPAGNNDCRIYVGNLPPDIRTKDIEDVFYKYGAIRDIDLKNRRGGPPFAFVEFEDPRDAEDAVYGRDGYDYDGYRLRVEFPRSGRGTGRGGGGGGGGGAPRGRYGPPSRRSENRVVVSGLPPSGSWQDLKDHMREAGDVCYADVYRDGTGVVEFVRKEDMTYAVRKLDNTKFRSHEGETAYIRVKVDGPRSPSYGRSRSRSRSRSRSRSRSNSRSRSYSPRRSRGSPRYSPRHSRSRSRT

Chain of SRSF1 E60D (Q07955 whole entry E60D): as the sequence (Q07955 whole entry) above, with E60D counted along it
Chain of SRSF1 P89S (Q07955 whole entry P89S): as the sequence (Q07955 whole entry) above, with P89S counted along it

B1: ssRNA (64mer) (ssRNA)
RNA: UUUCCCAGCACCAGAUUCAGCAUACGUUACCGAUCGUACGUUCGAUGCUGGCUACUGCUAGCUU
For B1, the binding result is recorded as “binds” in series [1], “no binding” in series [2] and “binds” in series [3].
